Patent US8470523B2, “Method for detecting intracellular interaction between biomolecules” (CIS BIO International, priority 2005, dated 2013)

Tested on: CHO-M1 cells
Assay: Entry of a fluorophore into cells in culture, fluorescence reader
Conditions: 2.5 μM or 5 μM in KREBS buffer, 1 hour, FIG. 13
Procedure: CHO cells are cultivated at 37° C., under a controlled atmosphere containing 5% of CO2, in F-12 HAM medium (Invitrogen)+10% of fetal calf serum (FCS) previously inactivated for 20 min at 60° C.
On the day before the experiment, CHO-M1 cells are inoculated into a 96-well plate at a density of 10,000 cells per well.
On the day of the experiment, the culture medium is aspirated and replaced with the test compounds at a concentration of 2.5 μM or 5 μM in KREBS buffer (Sigma). After 1 hour of incubation, the wells are washed with a KREBS buffer+0.05% Tween 20. The cells are then lyzed in a PBS buffer+0.1% Triton X100. The fluorescence is measured on an Analyst AD reader (LJL, Molecular Devices) with the filters and the dichroic appropriate for the spectral specificities of the compound to be detected.

## N=C(N)NCCCC(NC(=O)CCCCCN)C(=O)NCCCCCC(=O)NC(CCCNC(=N)N)C(=O)NCCCCCC(=O)NC(CCCNC(=N)N)C(=O)NCCCCCC(=O)NC(CCCNC(=N)N)C(=O)NCCCCCC(=O)NC(CCCNC(=N)N)C(=O)NCCCCCC(=O)NC(CCCNC(=N)N)C(=O)NCCCCCC(=O)NC(CCCNC(=N)N)C(=O)NC(CSCC(=O)Nc1ccc2c(c1)C1(OC2=O)c2ccc(O)cc2Oc2cc(O)ccc21)C(N)=O (stereo not shown) [R7fluorescein]
  entry into the cell (fluorescence intensity of lysed cells): enter the cell
